Reference: US6500428B1, “Antibodies to a lymphocyte surface receptor that binds CAML and methods of use thereof” (St. Jude Children's Research Hospital, priority 1997, dated 2002)

T1: TACI-1 (Homo sapiens, UniProt O14836)
T1 sequence (O14836 1-293): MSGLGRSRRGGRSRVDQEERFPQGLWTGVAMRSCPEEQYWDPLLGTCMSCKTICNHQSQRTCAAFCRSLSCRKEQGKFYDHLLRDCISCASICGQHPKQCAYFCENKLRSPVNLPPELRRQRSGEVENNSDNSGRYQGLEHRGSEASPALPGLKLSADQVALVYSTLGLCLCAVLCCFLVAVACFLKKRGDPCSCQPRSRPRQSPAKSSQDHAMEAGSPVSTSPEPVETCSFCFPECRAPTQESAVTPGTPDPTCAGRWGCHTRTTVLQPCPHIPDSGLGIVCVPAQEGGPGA


How the values were obtained:
TACI-1 [1] = target: T1, TACI-1; assay: NF-AT-driven secreted alkaline phosphatase reporter in TAg Jurkat T cells transfected with TACI-1; format: cell-based; set-up: expressed in transfected cells; host or cells: TAg Jurkat T cells, plasmid pBJ5-TACI-1; details: antibody-cross linked TACI-1 in TAg Jurkat T cells; CsA 100 ng/ml, FK506 500 pg/ml; EGTA increasing concentrations; CAML(1-146) co-transfected
Protocol: FIG. 4. TACI-1 is a signaling protein that functions in the activation of NF-AT-specific transcription. FIG. 4A depicts the activation of an NF-AT-driven secreted alkaline phosphatase reporter. TAg Jurkat T cells, co-transfected with the SXNFAT reporter [Bram et al., Mol. Cell. Biol., 13:4760-4769 (1993)] and the expression plasmid pBJ5 [Takebe, Y, et al., Mol. Cell. Biol., 8:466-472 (1988)] containing either TACI-1-encoding cDNA (solid triangles) or nothing (circles), were treated with 50 ng/ml PMA and the indicated amounts of ionomycin in the presence (closed symbols) and absence (open symbols) of magnetic beads coated with immunoaffinity-purified anti-TACI-1 polyclonal antibodies. […] NF-AT activation was determined in TAg Jurkat T cells co-transfected with SXNFAT and pBJ5 (−TACI-1, left) or pBJ5-TACI-1 (+TACI-1, right), and treated with the indicated combinations of PMA (50 ng/ml), ionomycin (2 μM), CsA (100 ng/ml) and FK506 (500 pg/ml) in the presence of anti-TACI-1 antibody-coated beads (‘NS’, not stimulated). […] NF-AT activation was measured in the presence of EGTA in Jurkat T cells over expressing TACI-1. […] AP-1 activation was measured in TAg Jurkat T cells, co-transfected with a mouse metallothionein AP-1-SEAP reporter [Bram et al., 1991, supra] and pBJ5 containing no insert (−TACI-1, left) or TACI-1 cDNA (+TACI-1, right). […]

[2] = test system: PMA plus ionomycin-induced NF-AT activity; assay: PMA plus ionomycin-induced NF-AT activity in Jurkat T cells (specificity control); format: cell-based, human; details: co-transfection in Jurkat T cells
Protocol: To examine whether TACI-1 signaling depends on the association of TACI-1 with CAML. the interacting domain of CAML (residues 1-146) is tested to determine if it can inhibit TACI-1-induced NF-AT activation in a dominant negative fashion. […] CAML(1-146) lacks the hydrophobic transmembrane domains that are required for Ca^2+ influx activity [Holloway & Bram, Biol. Chem., 271:8549-8552 (1996)].

TACI-1 [3] = target: T1, TACI-1; assay: Co-immunoprecipitation with FLAG-tagged TACI-1 from 293T cell lysates; format: binding; details: anti-FLAG agarose beads
Protocol: FIGS. 5A-5D. TACI-1 interaction with CAML is critical for Ca^2+ signaling. […] Full-length cDNAs and indicated deletion mutants of TACI-1 and CAML were cloned into the yeast expression plasmids pACT and/or pAS1, and the indicated combinations were tested for interaction with the yeast 2-hybrid system (‘+’, positive interaction; ‘−’, no interaction; ‘ND’, not done). FIG. 5D depicts the co-immunoprecipitation of CAML with TACI-1. 293T cells were transfected with the indicated combinations of the expression plasmid pBJ5 containing cDNAs for CAML. TACI-1 with an N-terminal FLAG tag, the N-terminal 146 amino acids of CAML (CLX91), or no insert. After incubation for 48 hours, the cells were lysed (1% dodecyl maltoside, 20 […] HEPES pH 7.4. 150 mM NaCl, 10% glycerol, 2 mM MgSO4, 1 mM CaCl2, 1 mM PMSF) and the lysate was clarified by centrifugation. FLAG-tagged TACI-1 and associated proteins were immunoprecipitated with anti-FLAG monoclonal antibody-conjugated agarose beads and subjected to Western transfer using standard protocols. […] NF-AT activation was determined in TAg Jurkat cells transfected with pBJ5 alone, pBJ5-TACI-1 plus the control plasmid, or pBJ5-TACI-1 with an equivalent amount of CLX91, following treatment with TACI-1-specific antibodies (top). TACI-1 expression in these transfections was determined by Western blot using anti-TACI-1 polyclonal antibodies (bottom). […]

| Molecule | effect on TACI-1-mediated NF-AT activation (TACI-1 [1]) | effect on PMA plus ionomycin-induced NF-AT activity [2] | co-immunoprecipitation with TACI-1 (TACI-1 [3]) |
| --- | --- | --- | --- |
| O=C(O)CN(CCOCCOCCN(CC(=O)O)CC(=O)O)CC(=O)O [EGTA, reference compound] | inhibition |  |  |
| CAML(1-146): N-terminal 146 amino acids of CAML, expressed from plasmid; dominant negative inhibitor of TACI-1 signaling (protein, UniProt P49069 1-146, looked up, fragment) MESMAVATDGGERPGVPAGSGLSASQRRAELRRRKLLMNSEQRINRIMGFHRPGSGAEEESQTKSKQQDSDKLNSLSVPSVSKRVVLGDSVSTGTTDQQGGVAEVKGTQLGDKLDSFIKPPECSSDVNLELRQRNRGDLTADSVQR | completely eliminates | no inhibitory effect | co-immunoprecipitated |
